The text below walks through data of paper PMC7669869 (2020).

The target in one test is ADP355. Put plainly: FRET; table row labelled IC50, legend says Kd.
Another test deals with JT006 (UniProt Q15848 155-161, Tyr159 was replaced with Ser | Asp was applied to substitute Ala161, unnatural amino acid Nva incorporated (position not given); FITC labeled peptide in the cell imaging). Put plainly: FRET; table row labelled IC50, legend says Kd.

B1: AdipoR1 (overexpressed in HEK293 cells) (receptor)
chain: MSSHKGSVVAQGNGAPASNREADTVELAELGPLLEEKGKRVIANPPKAEEEQTCPVPQEEEEEVRVLTLPLQAHHAMEKMEEFVYKVWEGRWRVIPYDVLPDWLKDNDYLLHGHRPPMPSFRACFKSIFRIHTETGNIWTHLLGFVLFLFLGILTMLRPNMYFMAPLQEKVVFGMFFLGAVLCLSFSWLFHTVYCHSEKVSRTFSKLDYSGIALLIMGSFVPWLYYSFYCSPQPRLIYLSIVCVLGISAIIVAQWDRFATPKHRQTRAGVFLGLGLSGVVPTMHFTIAEGFVKATTVGQMGWFFLMAVMYITGAGLYAARIPERFFPGKFDIWFQSHQIFHVLVVAAAFVHFYGVSNLQEFRYGLEGGCTDDTLL
What is called Kd is the concentration at which binding is half-saturated. A high value points to weaker binding. As for B1, the Kd came out at 1.1 µM with ADP355 and 1.4 µM in the test with JT006.

B2: AdipoR2 (overexpressed in HEK293 cells) (receptor)
chain: MNEPTENRLGCSRTPEPDIRLRKGHQLDGTRRGDNDSHQGDLEPILEASVLSSHHKKSSEEHEYSDEAPQEDEGFMGMSPLLQAHHAMEKMEEFVCKVWEGRWRVIPHDVLPDWLKDNDFLLHGHRPPMPSFRACFKSIFRIHTETGNIWTHLLGCVFFLCLGIFYMFRPNISFVAPLQEKVVFGLFFLGAILCLSFSWLFHTVYCHSEGVSRLFSKLDYSGIALLIMGSFVPWLYYSFYCNPQPCFIYLIVICVLGIAAIIVSQWDMFATPQYRGVRAGVFLGLGLSGIIPTLHYVISEGFLKAATIGQIGWLMLMASLYITGAALYAARIPERFFPGKCDIWFHSHQLFHIFVVAGAFVHFHGVSNLQEFRFMIGGGCSEEDAL
For the molecule B2, in the test with JT006, the Kd came to 1.2 µM.
